B1: 70 bp (CAG)1 FRET DNA (dsDNA)
DNA 1: CACACGTTCCGAGATATCCTAGCAAGTGATCAGCGTCTATGTAGCTCAAGAGTTCGACTCAGCCTACACCGAG
DNA 2: CTCGGTGTAGGCTGAGTCGAACTCTTGAGCTACATAGACGATCACTTGCTAGGATATCTCGGAACGTGTG
modifications: 5' digoxigenin on both strands, anti-digoxigenin Fab end-blocked
B2: 70 bp (CAG)2 FRET DNA (dsDNA)
DNA 1: CACACGTTCCGAGATATCCTAGCAAGTGATCAGCAGCGTCTATGTAGCTCAAGAGTTCGACTCAGCCTACACCGAG
DNA 2: B1 DNA 2
modifications: 5' digoxigenin on both strands, anti-digoxigenin Fab end-blocked
B3: 70 bp (CAG)4 FRET DNA (dsDNA)
DNA 1: CACACGTTCCGAGATATCCTAGCAAGTGATCAGCAGCAGCAGCGTCTATGTAGCTCAAGAGTTCGACTCAGCCTACACCGAG
DNA 2: B1 DNA 2
modifications: 5' digoxigenin on both strands, anti-digoxigenin Fab end-blocked

Molecular target: MSH2;MSH3 (Homo sapiens;Homo sapiens, UniProt P43246;P20585 1-934;1-1137, |)
Assay: FRET

Binding result, binds:
B1
B2
B3
